Laboratory results published in the domain aggregation screens of Martell et al. (2025).

Experiment: soluble fraction after stress (log2 fold change); higher = more stays soluble; pooled small domains, quantitative proteomics
Conditions: stress: pH 4
Summary of the method: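 With high-throughput quantitative proteomics, pooled custom libraries of small protein domains were measured after pH 4 stress. Each domain's soluble amount after the stress gives a fold change taken as aggregation propensity. Higher log2 values mean more of the domain stayed soluble.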

HMLRDMIIQSYRYYTDKERNPRQVWNRMEADAFWEIIRDYEGYNGDGYVHTKIIPEMEALTVIEMDN
soluble fraction (log2): -1.62

HMLRISLAAARVNAEMTQEDVAREMHVSKNTVVNWEKGKSEPTISQSRELSKLYNMPLEYIFYL
soluble fraction (log2): 0.258

HMLRKTTDLDAIRSVAKDVIDQNPKAVEDYVGGKESAIGFLLGQVMRATKGTADANTVRELLKEILDS
soluble fraction (log2): -0.234

HMLRPMVAILNKNISKGQVISEDYIKFEVRPERQIHGAYHDISEVLGRKTKNNIAAGTILKVRHLDT
soluble fraction (log2): 0.375

HMLRQVSDSNALETAVKKVLDANPEEVERYKSGNKKLISFFVGQTMKATKGAGNPKEINSILAKLL
soluble fraction (log2): 0.201

HMLSAEAAAARTAISTLSEDQQRVLGLSIQRGLVHEQIARATGLPLGTVKTHIRRGLIKVREALEAQAAG
soluble fraction (log2): 0.0049

HMLSAGETYTLGYLKASDGILFTAADGSEQTVMQRVQVRLYDNGDGTYTARLADDIAYSAVVTEDMIDK
soluble fraction (log2): 0.256

HMLSDAAAMESIAYEAIRQMEPDTYYIIGAGTTTRGIMEVLGLKNTLIGVDLIRNKELVANDLGGKELLSY
soluble fraction (log2): -0.796

HMLSDEDMMELAIIENLQRENLNPIEEARAYESLIDKGFTHTEIADKMGKSRPYISNSIRLLSL
soluble fraction (log2): -1.38

HMLSDFHLNHDSIVNHTVQKKETIFSLSKKYGLSINEIIKANPGIQIDKLKRRSILIIPLRKK
soluble fraction (log2): -0.12

HMLSDLTPGDLVVHATHGIGRFLGIRKLELEGMTKDYITIQYRGNENLYVPVTQMDLVSRYI
soluble fraction (log2): -0.975

HMLSGGEVKRIEIATILARKSGLMIFDEPEAGIDLWSFARLVETFEDIRSNTSGSLVIISHQ
soluble fraction (log2): -0.0926

HMLSKEERRSQLLDLGVRLLSTRSLDELSIDLLAEEAGISRGLLYHYFGNKHDFHEAVVRRAADDLI
soluble fraction (log2): -1.12

HMLSLKAQVYEIIRQKILQQEYALGEKINIDTVADELKISNSPIREALMMLSQDGLIEMVPNNGARVI
soluble fraction (log2): -1.27

HMLSLSDIINDVMERLTREKNLTFDELLGEKRERRRIVYTFLALLELIRLKMIKAYQTAAFGVIRIFPR
soluble fraction (log2): -1.15

HMLSLTSRQQEIFDLIKGHIKKTGMPPTRSEIALHFGFRSANSAEEHLRALARKGFIELIPGTSRGIKLIE
soluble fraction (log2): ≥ 0.43

HMLSPPWYEYHRKVQAMFGRDPEVHIKDLDDLGDGKFSYMILVYNKEKAEAIKAILPQKVEMGNVTIETAI
soluble fraction (log2): ≥ 0.43

HMLSRNEWLVMEALWERPSTLMELVRQLGQEPPGWAKSTTATMVRRMEEKGLIRHEAGSKARVYHP
soluble fraction (log2): -0.325

HMLSSAAAIDRILAGGTAAMNHRQFDAALTSFNTVIEMRPDFAEGWNKRATLYYLIGEYERSIADVERTLA
soluble fraction (log2): 0.0555

HMLSTRERMSSLMAQLQVQQFMPFHRLFTISEGRMGVIVTFLAMMELVKENLIKLIQAQEYGPIHVSLG
soluble fraction (log2): 0.22

HMLSVRERMSAILVSLEGERYADFTGLFDPTEGKGGVTVTFLAILELLKESMIDVVQNELYGPIHVRAA
soluble fraction (log2): 0.122

HMLSVRNRMSDVLKSLDDGEFHRFESLFNLEEGRLGVVVTFLAMLELAKEMLVEIVQNESLGPIYLKSR
soluble fraction (log2): 0.144

HMLSVRQRMGELLERLADGQFHRFESLFTVEEGKLGVVVTFLGLLTLAKEQLLDIVQEGPTAPIYVKSLA
soluble fraction (log2): 0.0784

HMLSVTLTVLPQQAGERLDAFAAAESTLSRSAAAKLIEDGQITVNGARAAKNYRLRAGDVIEIDEPEPI
soluble fraction (log2): 0.194

HMLTAPMPGTIQQILVTKGQKVRSGQTLMILEAMKMEHKIKAPNSGEIISINYSLGNRVEMGANLIEI
soluble fraction (log2): 0.0752

HMLTDAAAVKRSVRNLVQYGFYEKPFHPEIGSGVRDLLFENMTPFVANNLSKQIEEIITNYEPRA
soluble fraction (log2): -0.126

HMLTDMSKIRKVLKLYGKGNSKLFISTYLSLSRNTVKKYISLFEVSGKTIEEILAKSDSELELLFSG
soluble fraction (log2): -0.0775

HMLTEREQDTLNFIRQYIDEQGRSPLVSEIAKGLGIKSQGTTHRYIQALVDAGLLERHVGRTRGLHLT
soluble fraction (log2): -0.352

HMLTGADAEKATAAAQAEFPGGTVLRVETDADGTYEAHVRKADGTEVEVKMDKDFKVTSVEE
soluble fraction (log2): -0.0221

HMLTLAVPNSINMRLDKYLSENIDYLSRSKIQGLINDGKVTINGENEKSSYKLNGDESIVIYYEE
soluble fraction (log2): -0.775

HMLTPQEIGSRLKLVRQGLQLKQQEVAEIIGTSQLKISKIEQGATVTTPDFLKLLAFYSQSVSLDILF
soluble fraction (log2): -0.652

HMLTRQRKQLLEYLSKHTDEQMTARQIADALTAESISISAVYRNLSALEEEGILKRSIRENTREVYYQYIA
soluble fraction (log2): -0.231

HMLTSIDQMLKLAMPDSDITVSKMNGLILLTGTVKAPEDAAEAERLVQAFSAPPPGQPPVTVVSRLRTA
soluble fraction (log2): 0.22

HMLTTMSSQWKPSLDAIEILEKSGIAYSFIEDAIPEFVLYWRERGISHGAWNTKFVEHIRKQWAKFEAS
soluble fraction (log2): 0.21

HMLTTVAAQRAALHQEEDITKLREIILKLVPFWGLDGGAYADKETSIQLERQYRESFDQAVSAARRSGQA
soluble fraction (log2): -0.234

HMLTWNQLGLITKPVVFLDGTGYYARLFEAFEHMISTGFVKENYRAMMNRATSVEEAVRIASSPAPKVD
soluble fraction (log2): -0.187

HMLVGGPDTPSKVTVSFDLGSRQAVDELTERAGAAGGRIGDIDDYPFMYQRQFDDPDGYHYSPFWMKP
soluble fraction (log2): -0.528

HMLVTQSITVPMAMSGIRLDAALAMLFPDHSRNRLKAWLDDGHILVDGAVWAGKQRLEGNEEITATLPEAK
soluble fraction (log2): -0.189

HMLYDNQLPDWAGQMVKNHGLTISPKALVILVDHIGNDLSRIENEIEKLMLNLGTRKSITEDDVEN
soluble fraction (log2): -1.34

HMLYETLKKGDQGTSVKTLQEKLKALGYLTGAADGKYGAGTETAVKSFQKAAGLTETGTADPETLSAVYAA
soluble fraction (log2): 0.0393

HMLYITEIQKKIMDAFLVVANESNSGTRITMNEIANKVRMTPQAIYRKHFKSVIEISDTIRD
soluble fraction (log2): -1.17

HMMEERVIEFANVLRRNGVRVSLAENMDAFRALKSLGISDPLLFRHALRATLIKRGSDIQPFEELFDFFFL
soluble fraction (log2): -1.08

HMNAAFMKAERLLAILNILLTGKRVSSTELAKKLEVSVRTVYRDVEALSEAGFPVYATMGRDGGFGLIEGF
soluble fraction (log2): -1.58

HMNADAIIGRMGKVTEPITPDGYGRVEIDGDSWKATAVGGVAIAEGTRVSVVSLDSIIITVKTV
soluble fraction (log2): -0.117

HMNADAIVGRTGVVTEAIAADGFGRVQIDGDSWKAKASGNNGIDVGAKVRVLRIDSIILTVEK
soluble fraction (log2): 0.059

HMNAELSTVQAAEVLNVSRPFLIKLLEDGAIPHRKVGKHRRVRMEDVMSYKAAIDTEREAVLDQLAA
soluble fraction (log2): -0.722

HMNAISIDEAKKIALAKVSGASDQHIRIEADHDDGRLVYEGEIHYGRVEYEFEIDGSTGAIIEWDADRK
soluble fraction (log2): -0.0156

HMNAKKSTLQLDLLKQLLEGNKISLKDFSLSNEISIRTAQRYIEDLLEIFEKNIVKEGDFYSFIS
soluble fraction (log2): -1.34

HMNAKNPRALAIQYVFKMQMGNFLHAKTDNQQQEQERIMTLFNEENKNTILPRWGKELLSYINRN
soluble fraction (log2): -0.208

HMNDENIIIEEIKYFIKSNQIKEQEKLPSERNLSELFTVSRFSLRKALRHLVDTGYLYVKDKSGYYYQGD
soluble fraction (log2): 0.00355

HMNDLIKMPYLVGQLYDDVASNQEYADFQFKITEGNDPDKQPGEIMKQDPAADIMVKKNAEVELLVNG
soluble fraction (log2): 0.193

HMNDLKEDTITVQSVEYIDSDDGTMVYIKDTNHQVYKQAFKEDESLIRISAGDVLHVKYQPMDNEIHLL
soluble fraction (log2): -2.07

HMNDMPELLSIKEASQWATEYLNKNVTTSNIAYLIQYGRIRKIGNNGSTQVLKDDLVKYYKDQK
soluble fraction (log2): -0.0394

HMNDMWADITINANGKATLVVHTHEIKYLGLTGHLGKMEINGTAKEPVKDSSGDVVDYYFTFTDLDASMF
soluble fraction (log2): -0.623

HMNDNFTPDDLNRLARIKDLPQAKKYALELISNKSAKPMKPEKVRWFANQLQKKKSVMDITKMMYDLLLA
soluble fraction (log2): 0.198
